The values that follow come from patent US20220356229A1.

Numbering of substitutions follows the chain as printed. “And” between values parts separate entries of the source, which are not always exact repeats. Equal entries are not always repeated.

Common to all, as to details: remark: other sources report otherwise
Test [1] concerns the target SARS-CoV-2 Spike protein, wild type, full length (SARS-CoV-2), P0DTC2.
Test [2] concerns the target SARS-CoV-2 Spike (S) protein, wild type, full length, expressed on the surface of transiently transfected CHO cells (SARS-CoV-2), P0DTC2.
The target in test [3] is T1, SARS-CoV-2 Spike (S) protein, wild type, full length (SARS-CoV-2), P0DTC2.
Test [4] concerns the target SARS-CoV-2 Spike (S) protein, wild type (SARS-CoV-2), P0DTC2. Description: HT-SPR Carterra LSA; mAb coupled to chip, Spike in solution; 1:1 Langmuir fit.
Test [5] addresses T1, SARS-CoV-2 Spike (S) protein, wild …. The source holds these as a separate data set.

B1: antibody 485 (antibody, V domains shown)
VH: QVQLQESGPGLVKPSGTLSLTCAVSGASISSSNWWSWVRQPPGKGLEWIGEIYHSGSTNYNPSLKSRVTISVDKSKNQFSLKLSSVTAADTAVYYCARRSYYGSGSYYPFDYWGQGTLVTVSS
VL: QSALTQPASVSGSPGQSITISCTGTSSDVGSYNLVSWYQQHPGKAPKLMIYEGRKRPSGVSNRFSGSKSGNTASLTISGLQAEDEADYYCCSYAGSSTYVFGTGTKVTVL
As to B1, in test [1], the binding signal, fold over isotype control (fold over isotype) is 510.

B2: Antibody 389 (antibody, V domains shown)
VH: QVQLVESGGGVVQPGRSLRLSCAASGFTFSSYAMHWVRQAPGKGLEWVAVISYDGSNKYYADSVKGRFTISRDNSKNTLYLQMNSLRAEDTAVYYCASQGRMYVRGVDYGVYWGQGTLVTVSS
VL: NFMLTQPHSVSESPGKTVTISCTGSSGSIASNYVQWYQQRPGSAPTTVIYEDNQRPSGVPDRFSGSIDSSSNSASLTISGLKTEDEADYYCQSYDSSKISHAVFGGGTQLTVL
For the molecule B2, the MFI fold over isotype control (fold over isotype) in test [2] stood at 0.72.

B3: antibody 495 (antibody, V domains shown)
VH: QITLKESGPTLVKPTQTLTLTCTFSGFSLSTSGVGVGWIRQPPGKALEWLALIYWDDDKRYSPSLKSRLTITKDTSKNQVVLIMTNMDPVDTATYYCAHRDSSSWFDLDAFDIWGQGTMVIVSS
VL: QSVLTQPPSVSEAPRQRVTISCSGSSSNIGNNAVNWYQQLPGKAPKLLIYYDDLLPSGVSDRFSGSKSGTSASLAISGLQSEDEADYYCAAWDDRLNGPVFGGGTKLTVL
As for B3, the binding signal, fold over isotype control (fold over isotype) in test [1] is 1090 and 384 and 530. Also, in test [3], the median fluorescence, fold over isotype control (fold over isotype) is 0.83.

B4: antibody 464 (antibody, V domains shown)
VH: QVQLVQSGAEVKKPGASVKVSCKVSGYTLTELSMHWVRQAPGKGLEWMGGFDPEDGETIYAQKFQGRVTMTEDTSTDTAYMELSSLRSEDTAVYYCATARAFGVANWFDPWGQGTLVTVSS
VL: QSVLTQPPSASGTPGQRVTISCSGSSSNIGSNYVYWYQQLPGTAPKLLIYRNNQRPSGVPDRFSGSKSGTSASLAISGLRSEDEADYYCAAWDDSLSGLYVFGTGTKVTVL
For B4, the binding signal, fold over isotype control (fold over isotype) in test [1] was 1.27 and 0.99 and 1.04.

B5: antibody 499 (antibody, V domains shown)
VH: EVQLVESGGGLVKPGGSLRLSCAASGFTFSSYSMNWVRQAPGKGLEWVSSISSSSSYIYYADSVKGRFTISRDNAKNSLYLQMNSLRAEDTAVYYCARAPAGIVVGPDYWGQGTLVTVSS
VL: NFMLTQPHSVSESPGKTVTISCTGSSGSIASNYVQWYQQRPGSAPTTVIFEDNQRPSGVPDRFSGSIDSSSNSASLTISGLKTEDEADYYCQSYHSSNPHVVFGGGTKLTVL
In the case of B5, the binding signal, fold over isotype control (fold over isotype) in test [1] was 1120 and 386 and 432. The median fluorescence, fold over isotype control (fold over isotype) in test [3] was found to be 0.9.

B6: Antibody 390 (antibody, V domains shown)
VH: EVQLVESGGGLIQPGGSLRLSCAASGFTVSSNYMSWVRQAPGKGLEWVSIIYSGGSTYYADSVKGRFTISRDNSKNTLYLQMNSLRAEDSAVYSCATTMVRGLIISYYYGMDVWGQGTTVTVSS
VL: QSALTQPASVSGSPGQSITISCTGTSSDVGGYNYVSWYQQHPGKAPKLMIYEVSNRPSGVSNRFSGSKSGNTASLTISGLQAEDEADYYCSSYTSSSTLVFGGGTKLTVL
For the molecule B6, the MFI fold over isotype control (fold over isotype) in test [2] was found to be 0.73.

B7: anti-SARS-CoV-2 antibody 493 (antibody, V domains shown)
VH: B6 VH with G16R, S31I, N32T, I50L, T57S, S90T, S94Y, L103V
VL: B6 VL
As for B7, the kon in test [4] was determined as 75000 M⁻¹ s⁻¹.

B8: Antibody 413 (antibody, V domains shown)
VH: EVQLVESGGGLIQPGGSLRLSCAASGFTVSGNYMNWVRQAPGKGLEWVSVIYSGGSTYYADSVKGRFTISRANSKNTLYLQMNSLRAEDTAVYYCASTSLVRGLIILYYYGMDVWGQGTTVTVSS
VL: B6 VL
B8: the MFI fold over isotype control (fold over isotype) in test [2] was 1.11.

B9: antibody 269 (antibody, V domains shown)
VH: QLQLQESGPGLVKPSETLSLTCTVSGGSISSSSYYWGWIRQPPGKGLEWIGNIYYSGSTYYNPSLKSRVTISVDTSKNQFSLKLSSVTAADTAVYYCAGEELDIVATIYSSRYYYYGMDVWGQGTTVTVSS
VL: B6 VL with S96T
Regarding B9, in test [5], the bead binding signal (fold over isotype) (fold over isotype) was 480 and 191 and 188.

B10: antibody 267 (antibody, V domains shown)
VH: EVHLVQSGAEMKKPGATVKISCKVSGNTFIDHYIQWVQQAPGKGFEWMGLVDPEDGETIYAEKFQGRVTITADTSRDTAYMELSSLKSEDTAVYYCGTHGDYLDYWGQGTLVTVSS
VL: FYELTQPSSVSVSPGQTALITCSGDVVAKKYARWFQQKAGQAPVLVIYKDTERPSGIPERISGSSSGTTVTLTISGAQVEDEADYYCYSATDNNLVFGGGTKVTVL
B10: the bead binding signal (fold over isotype) (fold over isotype) in test [5] came out at 312.

B11: antibody 270 (antibody, V domains shown)
VH: QVQLVQSGAEVKRPGTSVKVSCKTSGYTFTDHFIHWVRQAPGRRLEWMGWINPNSGGTNYAQNFQGRVTMTRDTSITTAYMDLTRLTSDDTAIYYCAREAAYGSGNLNWFDPWGQGTRVTVSS
VL: NFMLTQPHSVSESPGKTVTISCTGSSGSIAANYVHWYQQRPGSAPRTVIYEDNQRPSGVPDRFSGSIDSSSNSASLTISGLKTEDEADYYCQSYDGDSWVFGGGTKLTVL
B11: the bead binding signal (fold over isotype) (fold over isotype) in test [5] is 305.

What is called kon is the rate constant with which the complex forms. A lower kon goes with slower complex formation.
